The source of these data is patent US20050074854A1 (TRIPEP, published 2005).

The assay deals with gp120 of HIV-1 IIIB (on virus) (HIV-1 IIIB). As to the kind of experiment: cell-based or functional assay.
Consider QFHWKNSNQIKILGN [CD4 peptide Seq. Id. No. 4 without the coupled sugar], for which the “neutralization of HIV-1 IIIB (reduction of syncytia/PFU, U87/CD4 cells); CD4 peptide alone, 0.1 ug/ml” value was < 0.3 fraction neutralized (0.3 = 30%); the “neutralization of HIV-1 IIIB (reduction of syncytia/PFU, U87/CD4 cells); CD4 peptide alone, 1 ug/ml” value is < 0.3 fraction neutralized (0.3 = 30%); the “neutralization of HIV-1 IIIB (reduction of syncytia/PFU, U87/CD4 cells); CD4 peptide alone, 10 ug/ml” value was < 0.3 fraction neutralized (0.3 = 30%).

On to KILGNQGSFLTKGPS [CD4 peptide Seq. Id. No. 6 without the coupled sugar], for which the “neutralization of HIV-1 IIIB (reduction of syncytia/PFU, U87/CD4 cells); CD4 peptide alone, 0.1 ug/ml” value was < 0.3 fraction neutralized (0.3 = 30%); the “neutralization of HIV-1 IIIB (reduction of syncytia/PFU, U87/CD4 cells); CD4 peptide alone, 1 ug/ml” value was < 0.3 fraction neutralized (0.3 = 30%); the “neutralization of HIV-1 IIIB (reduction of syncytia/PFU, U87/CD4 cells); CD4 peptide alone, 10 ug/ml” value is < 0.3 fraction neutralized (0.3 = 30%).

On to QGSFLTKGPSKLNDR [CD4 peptide Seq. Id. No. 7 without the coupled sugar], for which the “neutralization of HIV-1 IIIB (reduction of syncytia/PFU, U87/CD4 cells); CD4 peptide alone, 0.1 ug/ml” value was < 0.3 fraction neutralized (0.3 = 30%); the “neutralization of HIV-1 IIIB (reduction of syncytia/PFU, U87/CD4 cells); CD4 peptide alone, 1 ug/ml” value was < 0.3 fraction neutralized (0.3 = 30%); the “neutralization of HIV-1 IIIB (reduction of syncytia/PFU, U87/CD4 cells); CD4 peptide alone, 10 ug/ml” value is < 0.3 fraction neutralized (0.3 = 30%).

On to NSNQIKILGNQGSFL [CD4 peptide Seq. Id. No. 5 without the coupled sugar], for which the “neutralization of HIV-1 IIIB (reduction of syncytia/PFU, U87/CD4 cells); CD4 peptide alone, 0.1 ug/ml” value was < 0.3 fraction neutralized (0.3 = 30%); the “neutralization of HIV-1 IIIB (reduction of syncytia/PFU, U87/CD4 cells); CD4 peptide alone, 1 ug/ml” value was < 0.3 fraction neutralized (0.3 = 30%); the “neutralization of HIV-1 IIIB (reduction of syncytia/PFU, U87/CD4 cells); CD4 peptide alone, 10 ug/ml” value is < 0.3 fraction neutralized (0.3 = 30%).
